Results taken from publication PMC11870394 (bioRxiv, 2025).

B1: RSV-3301 Fab (Fab, V domains shown)
VH: QVQLVESGPTLVKPTQTLTLTCSFSGFSLSTRGVGVGWVRQPPGKALECLGFTYWDGDEYYSPSLRNRVTISKDTSKNQVVLTLTNMDPVDTATYFCVHSDLYDRGGYYLYYFDYWGQGTLVTVSS
VL: DIRVTQSPSSLSASVGDRVTITCRASQTIASYVNWYQQKPGRAPELLIYAASILQSGVPSRFSGRGSGTDFTLTINGLQPEDFATYYCQQSYSSPWTFGQGTKVEIK
B2: RSV-2245 Fab (Fab, V domains shown)
VH: QVQLVQSGAEVKKPGASVKVSCKASGYSFSSFGVSWVRQAPGQGLEWLGWISAYNGNTDYAQKVQGRLTMTTDTSTNTAYMELRNLRSDDTAVYYCARDPPASAAAMFDYWGQGTLVTVSS
VL: not shown

Target: RSV prefusion F (PR-DM) (respiratory syncytial virus A, UniProt P03420)
Experiment: cryo-EM structure

Binder	stoichiometry N
B1	3 Fab per F trimer
B2	3 Fab per F trimer
